For one test, the system named is HCV NS3/4A PR K136D. As to the kind of experiment: Biacore 8K binding kinetics, mutant protease to PRSIM_23. On the set-up: species or system Hepatitis C virus subtype 1a. Here is the method:
(§1) The scFv and Tn3 PRSIM binding molecules were covalently immobilised to a CM5 chip surface using standard amine coupling techniques at a concentration of 1 μg/ml in 10 mM sodium acetate pH 4.5.
(§2) The HCV NS3/4A PR (S139A), or BSA control, was diluted 1:4 (1.25-20 nM)±10 nM simeprevir in 10 mM Hepes pH 7.4, 150 mM NaCl, 0.05% Surfactant P20, 0.01% DMSO, ensuring constant simeprevir and DMSO concentration. The samples were flowed over the chip at 50 μl/min using single cycle kinetics, with 120 sec association and 600 sec dissociation. The chip surface was regenerated with two 20 sec pulses of 10 mM Glycine-HCl pH 3.0. The final sensorgrams were analysed using the Biacore 8K Evaluation Software and the affinity constant KD was determined using a 1:1 binding model. The same method was used for measuring the affinity of the HCV NS3/4A PR mutants for PRSIM_23 with minor deviations. The mutants were diluted 1:4 (2.5-40 nM)±simeprevir in 10 mM Hepes pH 7.4, 150 mM NaCl, 0.05% Surfactant P20, 0.08% DMSO, ensuring constant simeprevir and DMSO concentration. The samples were flowed over the chip at 50 μl/min using single cycle kinetics, with 180 sec association and 600 sec dissociation.

For the next test, the system named is HCV NS3/4A PR K136N. The test is described as above. On the set-up: species or system Hepatitis C virus subtype 1a. The method, then:
as §1, §2

A further test deals with HCV NS3/4A PR D168E. Described as above. On the set-up: species or system Hepatitis C virus subtype 1a. Particulars: 20 nM simeprevir. Here is the method: as §1, §2
In test [1] the test system is split Nanoluciferase (LgBiT/SmBiT) reconstitution in HEK293 cells. The test can be described thus: Split NanoLuc reconstitution assay (NanoBiT). Particulars: 100 nM simeprevir over no simeprevir; LgBiT fused to the C-terminus of the PRSIM binding module. The test is classed as cell-based, human. The method, then:
The ability of the PRSIM binding molecules to promote dimerization of two proteins to which they are fused was assessed with the NanoBiT system (Promega) that measures the reconstitution of a split Nanoluciferase (NanoLuc) and the resultant luminescence upon supply of a live cell imaging Nano-Glo NanoLuc substrate (FIG. 8). In the NanoBiT system, one interaction partner is fused via a flexible linker to an 18 kDa fragment of NanoLuc termed LgBiT (for “large bit”) (SEQ ID NO: 16) and the other is fused via an equivalent linker to a 1.3 kDa peptide SmBiT (“small bit”) (SEQ ID NO: 17). LgBit and SmBiT have a low affinity (190 μM) for each other in the absence of interacting partners and will not reconstitute to form an active luciferase enzyme. Once fused to the interacting proteins of a CID and supplied with inducer, they will reconstitute, and luminescence can be measured. The NanoBiT system supplies two sets of control proteins fused to LgBiT and SmBiT: a set of constitutively interacting proteins PRKAR2A:PRKACA; and the FRB:FKBP12 pair whose dimerization can be induced with rapamycin.
To establish the optimal orientation of the HCV NS3/4A PR (S139A) and PRSIM components, constructs whereby HCV NS3/4A PR (S139A) was fused at either the N- or C-terminus to SmBiT (SEQ ID NOs: 18 and 19, respectively) and a parallel set of constructs for each PRSIM binding module fused to either the N- or C-terminus of LgBiT (SEQ ID NOS: 20-30 and 31-41, respectively). The NanoBiT kit (Promega) supplies a set of vectors enabling these constructs to be generated. DNA strings encoding HCV NS3/4A PR (S139A) and the PRSIM molecules were purchased from GeneArt and amplified via PCR with primers with extensions containing restriction sites compatible with the NanoBiT vectors and were cloned via Gibson assembly. All constructs were verified via Sanger sequencing of the entire coding sequence.
All NanoBiT screens were performed in adherent HEK293 cells cultured in 96-well plates. Cells enzymatically dissociated from a tissue culture flask were counted and plated at 2×10^4 cells/well in a white, opaque-bottomed 96-well plate (Costar 3917). The plates were incubated overnight at 37° C. with 5% CO2 to allow the cells to adhere. On day 2, plasmids were co-transfected with Lipofectamine LTX (ThermoFisher) at a final concentration of 100 ng/well (50 ng/plasmid, one encoding a SmBiT fusion, the other a LgBiT fusion). On day 3, wells were treated with 100 nM of the appropriate small molecule inducer (rapamycin (FRB:FKBP12) or simeprevir (HCV NS3/4A PR:PRSIM)) or vehicle control, and luminescence was quantified with an Envision plate reader immediately following addition of Nano-Glo Live Cell Substrate (Promega).

B1: PRSIM_23: Tn3 protein specific for HCV NS3/4A PR (S139A):simeprevir complex, SEQ ID NO: 5 (protein)
chain: RLDAPSQIEVKDVTDTTALITWVDPRYDDIWWFELTYGIKDVPGDRTTIKLYLNDPYYSIGNLKPDTEYEVSLISYTGDSYSRSGSNPAKITFKTGL
modifications: PRSIM_23
Consider B1, for which the “decrease in affinity for PRSIM_23 compared to ‘Wt’” value in the test on HCV NS3/4A PR K136D (K136D versus ‘WT’ (S139A)) and in the test with HCV NS3/4A PR K136N (K136N versus ‘WT’ (S139A)) was 6-7 fold throughout. Besides, the Rmax is on record as 168 RUs in the test with HCV NS3/4A PR K136D (K136D, 800 nM simeprevir); 198 RUs with HCV NS3/4A PR K136N (K136N, 40 nM simeprevir); 199 RUs in the test with HCV NS3/4A PR D168E. For the same molecule, the ka came to 1.69e+10 M⁻¹ s⁻¹ in the test with HCV NS3/4A PR K136D (K136D, 800 nM simeprevir); 5.31e+08 M⁻¹ s⁻¹ with HCV NS3/4A PR K136N (K136N, 40 nM simeprevir); 1.47e+09 M⁻¹ s⁻¹ in the test with HCV NS3/4A PR D168E. Moreover, the kd on HCV NS3/4A PR K136D (K136D, 800 nM simeprevir) stood at 373 s⁻¹; at HCV NS3/4A PR K136N (K136N, 40 nM simeprevir), 20.4 s⁻¹; on HCV NS3/4A PR D168E it was 21.4 s⁻¹. Further, the fold-change in luminescence in test [1] came to 31 fold.

B2: PRSIM_33: Tn3 PRSIM binding molecule, SEQ ID NO: 7 (protein)
chain: RLDAPSQIEVKDVTDTTALITWYPPGRWYDDIWYFELTYGIKDVPGDRTTIKLARGDDVYSIGNLKPDTEYEVSLISWGPDRGDRAGSNPAKITFKTGL
modifications: PRSIM_33
Take B2: the fold-change in luminescence in test [1] is on record as 9 fold.

B3: PRSIM_57: scFv specific for HCV NS3/4A PR (S139A):simeprevir complex, SEQ ID NO: 12 (protein)
scFv: QVQLVQSGAEVKKPGSSVKVSCKASGGTFSSYAISWVRQAPGQGLEWMGGIIPIFGTANYAQKFQGRVTITADESTSTAYMELSSLRSEDTAVYYCARHTNYITVFDYWGQGTLVTVSSGGGGSGGGGSGGGGSAQSVLTQPPSASGTPGQRVTISCSGSSSNIGSNTVNWYQQLPGTAPKLLIYSNNQRPSGVPDRFSGSKSGTSASLAISGLQSEDEADYYCAAWDHHWEQVVFGGGTKLTVL
modifications: PRSIM_57
Regarding B3, in test [1], the fold-change in luminescence stood at 14 fold.

For the origin of these results see US20220380801A1, “TRIPARTITE SYSTEMS FOR PROTEIN DIMERIZATION AND METHODS OF USE” (priority 2019, published 2022).
